The series deals with the molecule itself. As to the kind of experiment: SDS-PAGE without DTT (non-reducing) and western blot; purified recombinant His-USP5 or His-USP5^C195A in PBS treated with H2O2 for 10 min; SDS-PAGE with or without DTT (Fig. 5g, Supplementary Fig. S5e); western blot of H2O2-treated protein (Fig. 5k). For orientation: In western blotting, separated proteins are transferred to a membrane and probed.

B1: His-USP5 (purified recombinant) (enzyme, human, UniProt P45974 1-858, looked up)
chain: MAELSEEALLSVLPTIRVPKAGDRVHKDECAFSFDTPESEGGLYICMNTFLGFGKQYVERHFNKTGQRVYLHLRRTRRPKEEDPATGTGDPPRKKPTRLAIGVEGGFDLSEEKFELDEDVKIVILPDYLEIARDGLGGLPDIVRDRVTSAVEALLSADSASRKQEVQAWDGEVRQVSKHAFSLKQLDNPARIPPCGWKCSKCDMRENLWLNLTDGSILCGRRYFDGSGGNNHAVEHYRETGYPLAVKLGTITPDGADVYSYDEDDMVLDPSLAEHLSHFGIDMLKMQKTDKTMTELEIDMNQRIGEWELIQESGVPLKPLFGPGYTGIRNLGNSCYLNSVVQVLFSIPDFQRKYVDKLEKIFQNAPTDPTQDFSTQVAKLGHGLLSGEYSKPVPESGDGERVPEQKEVQDGIAPRMFKALIGKGHPEFSTNRQQDAQEFFLHLINMVERNCRSSENPNEVFRFLVEEKIKCLATEKVKYTQRVDYIMQLPVPMDAALNKEELLEYEEKKRQAEEEKMALPELVRAQVPFSSCLEAYGAPEQVDDFWSTALQAKSVAVKTTRFASFPDYLVIQIKKFTFGLDWVPKKLDVSIEMPEELDISQLRGTGLQPGEEELPDIAPPLVTPDEPKGSLGFYGNEDEDSFCSPHFSSPTSPMLDESVIIQLVEMGFPMDACRKAVYYTGNSGAEAAMNWVMSHMDDPDFANPLILPGSSGPGSTSAAADPPPEDCVTTIVSMGFSRDQALKALRATNNSLERAVDWIFSHIDDLDAEAAMDISEGRSAADSISESVPVGPKVRDGPGKYQLFAFISHMGTSTMCGHYVCHIKKEGRWVIYNDQKVCASEKPPKDLGYIYFYQRVAS
notes: USP5; Treated with H2O2 before the dimerisation assays; also called recombinant USP5; WT USP5; source: E. coli BL21(DE3), purified (HisTrap HP, Superdex 200 increase)
By stoichiometry N is commonly meant a count of units in the complex or per binding partner. Take B1: the “stoichiometry N” value turned out to be 2.

The record behind these values is article PMC9759531, “USP5-Beclin 1 axis overrides p53-dependent senescence and drives Kras-induced tumorigenicity” (Nature Communications, 2022).
